From the MegaScale stability set (Tsuboyama et al. 2023)

B1: r16_88_TrROS_Hall (parent)
chain: EVIELKIKFKTPEQREKLKEIAKKLNAEVVEEKDGEVIIRFKTPEQAERALKEAEKLGAEVEL

Variants of: B1
Test: folding stability dG (cDNA display proteolysis); higher = more stable
Conditions: PBS, room temperature

In order of falling “folding stability dG” value:
1. E13F  20.9 kJ/mol
2. E20F  20.8 kJ/mol
3. E20Y  20.7 kJ/mol
4. P12Y  20.5 kJ/mol
5. K19Y  20.5 kJ/mol
6. E13C  20.4 kJ/mol
7. E13L  20.4 kJ/mol
8. E20L  20.4 kJ/mol
9. E13W  20.3 kJ/mol
10. E20M  20 kJ/mol
11. E13Y  19.9 kJ/mol
12. E20W  19.9 kJ/mol
13. I21F  19.9 kJ/mol
14. E16F  19.8 kJ/mol
15. K19W  19.7 kJ/mol
16. E13S  19.5 kJ/mol
17. E13M  19.5 kJ/mol
18. R15W  19.5 kJ/mol
19. K17W  19.3 kJ/mol
20. E16M  19.3 kJ/mol
21. E16L  19.3 kJ/mol
22. K19F  19.3 kJ/mol
23. E13R  19.2 kJ/mol
24. E20R  19.2 kJ/mol
25. E16H  19.2 kJ/mol
26. R15Y  19.2 kJ/mol
27. E13Q  19.1 kJ/mol
28. E13N  19.1 kJ/mol
29. K17F  19.1 kJ/mol
30. K17Y  19.1 kJ/mol
31. E13P  19 kJ/mol
32. K17L  19 kJ/mol
33. K17A  19 kJ/mol
34. E16R  19 kJ/mol
35. L18Y  19 kJ/mol
36. L18W  19 kJ/mol
37. E13G  18.9 kJ/mol
38. E13K  18.9 kJ/mol
39. E20C  18.9 kJ/mol
40. K17R  18.9 kJ/mol
41. E16G  18.9 kJ/mol
42. E16C  18.9 kJ/mol
43. E20T  18.8 kJ/mol
44. E20H  18.8 kJ/mol
45. K17D  18.8 kJ/mol
46. E16N  18.8 kJ/mol
47. K19T  18.8 kJ/mol
48. K19L  18.8 kJ/mol
49. E20V  18.7 kJ/mol
50. E16V  18.7 kJ/mol
51. E16K  18.7 kJ/mol
52. Q14N  18.7 kJ/mol
53. E20I  18.6 kJ/mol
54. K17S  18.6 kJ/mol
55. E16Q  18.6 kJ/mol
56. E16S  18.6 kJ/mol
57. Q14M  18.6 kJ/mol
58. E20S  18.5 kJ/mol
59. K17N  18.5 kJ/mol
60. K17M  18.5 kJ/mol
61. K17Q  18.5 kJ/mol
62. I21M  18.5 kJ/mol
63. Q14R  18.5 kJ/mol
64. K19M  18.5 kJ/mol
65. E13H  18.4 kJ/mol
66. E20K  18.4 kJ/mol
67. K17H  18.4 kJ/mol
68. I21L  18.4 kJ/mol
69. L18A  18.4 kJ/mol
70. E13V  18.3 kJ/mol
71. E20A  18.3 kJ/mol
72. K17G  18.3 kJ/mol
73. E16T  18.3 kJ/mol
74. E16I  18.3 kJ/mol
75. Q14V  18.3 kJ/mol
76. K19G  18.3 kJ/mol
77. R15I  18.3 kJ/mol
78. K17C  18.2 kJ/mol
79. R15F  18.2 kJ/mol
80. E13A  18.1 kJ/mol
81. E13I  18.1 kJ/mol
82. E13T  18.1 kJ/mol
83. E20G  18.1 kJ/mol
84. I21T  18.1 kJ/mol
85. E16A  18.1 kJ/mol
86. Q14A  18.1 kJ/mol
87. Q14G  18.1 kJ/mol
88. Q14L  18.1 kJ/mol
89. L18I  18.1 kJ/mol
90. E13D  18 kJ/mol
91. K17E  18 kJ/mol
92. I21C  18 kJ/mol
93. Q14T  18 kJ/mol
94. Q14W  18 kJ/mol
95. K19R  18 kJ/mol
96. K19I  18 kJ/mol
97. K19D  18 kJ/mol
98. K19Q  18 kJ/mol
99. R15E  18 kJ/mol
100. R15M  18 kJ/mol
101. R15C  18 kJ/mol
102. K17P  17.9 kJ/mol
103. K17V  17.9 kJ/mol
104. I21H  17.9 kJ/mol
105. Q14C  17.9 kJ/mol
106. L18M  17.9 kJ/mol
107. L18F  17.9 kJ/mol
108. K19H  17.9 kJ/mol
109. R15V  17.9 kJ/mol
110. E20D  17.8 kJ/mol
111. E20N  17.8 kJ/mol
112. Q14F  17.8 kJ/mol
113. L18V  17.8 kJ/mol
114. K19S  17.8 kJ/mol
115. R15H  17.8 kJ/mol
116. E20Q  17.7 kJ/mol
117. E16D  17.7 kJ/mol
118. R15Q  17.7 kJ/mol
119. K17T  17.6 kJ/mol
120. Q14H  17.6 kJ/mol
121. K19C  17.6 kJ/mol
122. K17I  17.5 kJ/mol
123. I21S  17.5 kJ/mol
124. Q14Y  17.5 kJ/mol
125. Q14S  17.5 kJ/mol
126. L18S  17.5 kJ/mol
127. K19A  17.5 kJ/mol
128. R15N  17.5 kJ/mol
129. R15S  17.5 kJ/mol
130. R15L  17.5 kJ/mol
131. I21A  17.4 kJ/mol
132. Q14D  17.4 kJ/mol
133. L18T  17.4 kJ/mol
134. R15T  17.4 kJ/mol
135. I21N  17.3 kJ/mol
136. K19V  17.3 kJ/mol
137. R15K  17.3 kJ/mol
138. R15A  17.3 kJ/mol
139. L18C  17.2 kJ/mol
140. K19E  17.2 kJ/mol
141. K19N  17.2 kJ/mol
142. R15D  17.2 kJ/mol
143. Q14K  17.1 kJ/mol
144. Q14I  17.1 kJ/mol
145. I21Q  17 kJ/mol
146. E16P  16.9 kJ/mol
147. I21E  16.7 kJ/mol
148. Q14E  16.7 kJ/mol
149. R15G  16.5 kJ/mol
150. L18G  16 kJ/mol
151. I21G  15.8 kJ/mol
152. I21K  15.8 kJ/mol
153. E20P  15.4 kJ/mol
154. I21R  15.1 kJ/mol
155. Q14P  14.6 kJ/mol
156. L18H  14.6 kJ/mol
157. R15P  14.4 kJ/mol
158. I21D  14.2 kJ/mol
159. K19P  14.1 kJ/mol
160. L18N  12.4 kJ/mol
161. L18Q  12.1 kJ/mol
162. L18R  8.85 kJ/mol
163. I21P  7.56 kJ/mol
164. L18K  7.04 kJ/mol
165. L18P  6.92 kJ/mol
166. L18E  6.57 kJ/mol
167. L18D  5.19 kJ/mol
